Experimental data taken from the RNAGym collection of RNA variant scans (doi:10.1073/pnas.2313332121).

B1: TPR t1 (parent)
chain: GACCAAUCUGCCCUCAGAGCUCGAGAACAUCUUCGGAUGCAGAGGAGGCAGGCUUCGGUGGCGCGAUAGCGCCAACGUCCUCAACCUCCAAUGCAUCCCACCACAUGAUGAUGCCUGAAGAGCCUUGGUUUUUUG

Variants of: B1
Assay: polymerase ribozyme fitness, log enrichment relative to wild type (log ratio); higher = more active; in vitro selection for triplet polymerase activity
How it was run: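 Streptavidin-bead capture of gel-excised extended constructs, followed by RT-PCR, closed a single triplicate in vitro selection round. That round began by annealing PCR-built, transcribed mutant libraries of each subunit of a heterodimeric triplet polymerase ribozyme with a biotinylated primer, the partner subunit and triplets, then incubating them frozen at −7 °C. After Illumina sequencing of inputs and outputs, genotypes needed ≥10 input reads and ≥1 read per output. Fitness is the base-2 logarithm of genotype enrichment over wild-type enrichment, using inverse-variance-weighted replicate averages.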

Variant | polymerase ribozyme fitness (log ratio)
G10A G19A A74U | -3.32
G10A C53A C72U C79A U96G | -1.55
U9G U109A G120C | -4.55
G10A G35U C56G C88A G120C U133A | -4.15
G10A C11U C40U C97A G120A | -4.4
G10A C49G G63U | -0.848
G10A A37U C53A C56G C85U G110U | -2.81
G10A G69U U78C A95G C115U | 0.452
G10A C22G G47A G60A | -3.93
G10A U21A A27G C53A | -0.87
G10A C11U C89A | -2.04
G10A G36A C56A A105U U112A | -3.87
G10A C11U C13U C62A C79A U106C G122A | -3.29
G10A A24G | -1.53
G10A C22G G61U A95U | -3.63
G10A C76U G110C | -5.64
G10A U59A C62A C89G | -5.2
G10A C11U | -0.673
G10A C15G C82A G93A | -4.03
G10A A83C G128U | -2.33
G10A G35A G77A | -5.04
G10A A74U | -0.813
G10A C40G | -0.282
G10A C13A A18G | -6.95

Variant | polymerase ribozyme fitness (log ratio)
G10A G47U A83G | -2.7
G10A G19U | -3.62
G10A C15U G47A U112A C124A G127C | -1.98
G10A C22G G61A G71C A111U G117A | -7.23
G10A G58C | 0.631
G10A G17A A37G G42U C53A C64U A100U | -5.75
G10A C34U G77A | -5.24
G10A G63A C89A | -3.25
G10A U54G G71C C102U A111U U129G | -5.93
G10A G61A A91C C123U | 0.979
G10A C13A U112A | 0.644
G10A A29U A41C C73U A74U G113U | -3.95
G10A C56G C82G C115G A121U | -0.467
G10A G58C C123A | 1.18
G10A C13A C70U | -1.36
G10A C20U C97G C123U | -3.15
G10A U38G G48C C79A | -4.53
G10A G17A | -3.1
G10A G71C U81A A100C | -4.69
G10A G39U | -0.557
G10A C56U | 0.385
G10A C40A A50U U78A | -4.41
G10A C13U | 0.219
G10A A41C G61U U92A U133C | -0.847

Variant | polymerase ribozyme fitness (log ratio)
G10A C72A U87G C102U | -1.09
G10A C82A A95U | -0.318
G10A G122A | 0.549
G10A C15G A16G G63A C80U G113C | -4.34
G10A U30A U54A | -5.83
G10A C22A C79A G120U C123G | -5.58
G10A C22U | -4.59
G10A G60A C82A C94U C123A | 1.22
G10A C72G U96A C104U | -0.61
G10A A29G | -2.58
G10A U21G G60A A103C C114A | -5.69
G10A C11G A27U G60A U78G C82A G93A A105G U109G | -6.59
G10A C82A C102U | -1.68
G10A G57U C72A C79A U96A | -2.33
G10A G61A C94U | -0.166
G10A A74G A90U G107U C115U | -7.83
G10A C11G C12U U96C C104U C123G U131G | 2.08
G10A C13A C94U U131A | -1.56
G10A U81A G110A U129A | -5.01
G10A C12G C40A C115U A119G G120C U131A | -0.621
G10A C11G G71A | -0.829
G10A G17A C82A | -3.46
G10A C86U U112A | 1.32
G10A C13A C64A U112A | -7.66

Variant | polymerase ribozyme fitness (log ratio)
G10A C88A C123U | 1.69
G10A A41C G52U C79U C82G U130G | -2.72
G10A C34U U87G | -3.98
G10A A37U G71C C104U | -0.936
G10A G51A C70U A119G | -4.32
G10A C11G G51U | -2.64
G10A C13U C22G G35C C101A U131G | -4.66
G10A A43G | -1.53
G10A U21G G44C C80U C123G | -2.04
G10A C11A G42U G48A A91G C115U | -2.2
G10A U38C G45A C79U | -1.29
G10A C62U | 0.124
G10A C62A | -0.929
G10A C70A G122A | -1.23
G10A A41C C53G U133C | -1.29
G10A A18U A118U | -1.34
G10A A66G | -1.17
G10A C12U U14C C56G G63C G117U U129A | -3.92
G10A C76U U78A C85A U125G | -1.57
G10A G51U C101A | -4.71
G10A G48U G52A G77U | -2.41
G10A C11A A18C G42C G44A C101A | -4.26
G10A G42U C72A C76G C115A | -3.07
G10A C70U C79U C82G G120C G128U | -2.34

Variant | polymerase ribozyme fitness (log ratio)
U9G U109C | -3.57
G10A A43G A119U | -1.73
G10A G42U C49A C70G C98A U112G U130G | -6.93
G10A G120U | 1.07
G10A C13A C22A A46G C49A G122A | -6.21
G10A G42U G110A | -4
G10A G17C C34A G47U C72G C80U C124A | -7.1
G10A A18U C70G G77A U87A C115A | -7.14
G10A G61A A111G | 0.12
G10A G17A U106A | -3.51
G10A A41U | -0.89
G10A C62U G69A A121U G127U | -1.42
G10A C56U C94G | -0.664
G10A C97A G120U | -4.42
G10A C94A C97U U106A | -0.642
G10A C13U U55A C76U C97A U116G | -6.1
G10A A16U C85G | -3.05
U9G U92G C115G U132C | -0.718
G10A G48C C64A G113A A119G C124G | -6.38
U9G U116A | -0.815
G10A C34A C40U G71C G77U C88A G113A | -6.08
G10A C97G | -3.95
G10A G61C A83U | -2.03
G10A A29G G113A U130A | -3.73

Variant | polymerase ribozyme fitness (log ratio)
G10A A27G C76U C94A | -5.09
G10A A50G C64U C115G | -3.37
G10A G42A A43U C64U | -1.45
G10A C53A C72U | 0.298
G10A C40A C72U C76A C99A | -7.55
G10A A74G A119U | -0.71
G10A G42A | -1.32
G10A G44U U92G C115A | -3.73
G10A U55A G60C G122A | -0.167
G10A C31U G61C C82A C94G C124U | -5.7
G10A G45A | -1.2
G10A G45C | -0.489
G10A A29U G110A | -2.97
G10A A66G A103U U106A G110U G120A C124A G127A | -6.98
G10A A37U G117U U133A | -4.32
G10A A27C C56A G57A C72U U78G G93C | -4.76
G10A A37C A84C A95G | -0.834
G10A A43G C76U C89U A111C | -4
G10A A41C C56U U78G C82U | -1.79
G10A A16U C88A U92C G120U | -1.32
G10A C70U | -0.224
G10A A29U G69U A83U C114G C123G | -2.26
G10A G61U C86U U92C G93A | -2.24
U9G U78C C79G G110A | -2.65

Variant | polymerase ribozyme fitness (log ratio)
G10A C13U C15U C79A A100U C124G U131G | -0.0361
G10A G44A A46U G48C | -1.66
G10A G45C C56G C72U | -2.53
G10A A29C C124U | -0.613
U9G U92A U96G U109A | -5.59
G10A C64U A103U C123U | -3.16
G10A C53U G63U | -0.334
G10A G71U U87C | -0.267
G10A C12A A29G G52U C56A G57C | -2.57
G10A U38G | 0.0174
G10A C72U C89G G93U | -2.93
G10A A74C U78A A111G | -0.232
G10A C13A G39C U133A | -1.46
G10A G17C C56U | -2.35
G10A G60U | -0.0901
G10A U59C G61A A83G C114G C115U | -7.23
G10A G17U A18U C115U C123G U130A | -4.27
G10A G117C | -4.43
G10A G69U C79A A103C C115U G122A | -5.83
G10A G35A | -3.71
G10A C72A | 0.427
G10A C72U | -0.532
G10A C64U | -0.954
